For two substances, Km, kcat and kcat/Km results are on record in article PMC7110780, “Multimodular fused acetyl–feruloyl esterases from soil and gut Bacteroidetes improve xylanase depolymerization of recalcitrant biomass” (Biotechnology for Biofuels, 2020).

Data set [1] deals with CC(=O)Oc1ccc([N+](=O)[O-])cc1. Put plainly: purified protein. The conditions noted are these: pH 8.0, 37 °C, 100 mM buffer. The class given is biochemical, Bacteroides ovatus.
In data set [2] the test system is CC(=O)Oc1ccc2c(C)cc(=O)oc2c1. Put plainly: purified protein. The conditions noted are these: pH 8.0, 37 °C, 100 mM buffer. The class given is biochemical, Bacteroides ovatus.

BoCE6 (Bacteroides ovatus): in data set [1], the Km amounted to 1800 ± 200 µM, the kcat worked out at 36 ± 2.2 s⁻¹ and the kcat/Km turned out to be 20100 ± 2700 M⁻¹ s⁻¹. For the same substance, in data set [2], the Michaelis constant (Km) turned out to be 27 ± 6 µM, the catalytic constant (kcat) was determined as 1.2 ± 0.1 s⁻¹ and the kcat/Km is 42800 ± 10000 M⁻¹ s⁻¹.
In the case of BoCE1 (Bacteroides ovatus), in data set [1], the Km was 1400 ± 100 µM, the kcat was 0.7 ± 0.02 s⁻¹ and the kcat/Km was 500 ± 40 M⁻¹ s⁻¹. In data set [2], the Km turned out to be 40 ± 10 µM, the turnover number (kcat) was 0.28 ± 0.01 s⁻¹ and the specificity constant (kcat/Km) worked out at 7100 ± 1600 M⁻¹ s⁻¹.

For orientation: Km means the concentration of substrate that gives half-maximal velocity. What is called kcat is the number of substrate molecules converted per active site and unit of time at saturation. Broadly, the kcat/Km is the second-order rate constant that governs catalysis at low substrate concentration.
